Test results published in publication PMC3405546 (Circulation Research, 2012).

Legend:
[1] = target: glutathione s-transferase (GST) tagged cyclin E (human, UniProt P24864 1-410); experiment: cross-linking
cross-linking = target: the molecule itself; experiment: cross-linking

glutathione s-transferase (GST) tagged cyclin E, sequence (P24864 whole entry): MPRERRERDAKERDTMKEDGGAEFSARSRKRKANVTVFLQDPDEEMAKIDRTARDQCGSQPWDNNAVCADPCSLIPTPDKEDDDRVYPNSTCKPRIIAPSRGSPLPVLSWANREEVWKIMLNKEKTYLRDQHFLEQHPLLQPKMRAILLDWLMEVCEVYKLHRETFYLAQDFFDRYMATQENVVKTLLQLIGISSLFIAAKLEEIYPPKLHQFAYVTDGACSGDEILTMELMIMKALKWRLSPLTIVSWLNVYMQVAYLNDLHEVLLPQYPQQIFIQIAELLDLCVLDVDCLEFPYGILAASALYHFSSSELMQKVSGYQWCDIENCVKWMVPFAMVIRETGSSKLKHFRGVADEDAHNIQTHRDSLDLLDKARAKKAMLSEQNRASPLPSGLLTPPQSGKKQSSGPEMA

B1: Cx43^CTMK4D (Cx43 C-terminus, phospho-mimetic Ser>Asp), purified (domain or fragment, rat, UniProt P08050 236-382, looked up)
chain: VKDRVKGRSDPYHATTGPLDPSKDCGDPKYAYFNGCSSPTAPLDPMDPPGYKLVTGDRNNSSCRNYNKQASEQNWANYSAEQNRMGQAGSTISNSHAQPFDFPDDNQNAKKVAAGHELQPLAIVDQRPSSRASSRASSRPRPDDLEI
With B1 the “stoichiometry N” value [1] was 2 Cx43^CTMK4D per cyclin E and the “stoichiometry N” value (cross-linking) was 2.
